# Assay results taken from patent US20250206841A1 (ADEPT THERAPEUTICS, published 2025).
# Numbering of substitutions follows the chain as printed.
# B1: 1D10 (antibody, V domains shown)
# VH: QEQLKESGGGLVQPGGSLTLSCKASGFDFNYYGVSWVRQAPGKGLEWIGYIYPAYHNTYYATWVNGRFTISSHNAQNTLYLQLNTLTAADTATYFCARDAGSTDYNLNLWGPGTLVTVSS
# VL: DVVMTQTPASVEVAVGGTVTIKCQASEDIESYLAWYQQKPGQPPRLLIYEASKLASGVSSRFSGGGYGTDFTLTISGVECADAATYYCHQALTIGNVDNPFGGGGEVVVK
# notes: Rabbit-derived clone; LEM construct: VH + rabbit IgG CH1 + human IgG1 CH2-CH3
# B2: 9F7 (antibody, V domains shown)
# VH: B1 VH with Y31N, A100T, L107F
# VL: B1 VL with R45K, D70E, H89Q, I94V, G105S
# notes: as for B1
# B3: 62E3 (antibody, V domains shown)
# VH: B1 VH with T19K, Y31E, G49A, Y55F, S102T, L107F
# VL: B1 VL with P8A, A9S, S10P, E12S, V13A, R45K, G65S, D70E, H89Q, G105S
# notes: as for B1
# B4: 72F12 (antibody, V domains shown)
# VH: B1 VH with T19K, Y31N, G49A, Y55F, T85S, T103V, L107F
# VL: DVVMTQTPASVEVAVGGTVTIKCQASKNIDSNLAWYQQKPGQPPKQLIYAASTLASGVSSRFSGSGYGAEFTLTISGVECADAATYYCQQALTIGNVDNPFGGGSEVVVK
# notes: as for B1
# B5: 9D7 (antibody, V domains shown)
# VH: QSLEESGGDLVQPGASLTLTCKASGFDLNNYSILWVRQAPGKGLEWIGCIYISGGSTYYANWAKGRFAISKTSSTTVTLQMTSLTAADTATYFCARDDGTASYYLNLWGPGTLVTVSS
# VL: YDMTQTPASVSEPVGGTVTIKCQASEDIYKLLAWYQQKPGQPPKLLIYAASDLESGVPSRFKGRGSGTDYTLTISDLECADAATYYCQQAYTIGNIDNSFGGGTEVVVK
# notes: as for B1
# B6: 9D7-2 (antibody, V domains shown)
# VH: B5 VH with C49S
# VL: B5 VL with C79A
# B7: 74F11/15F5 (antibody, human IgG1, V domains shown)
# VH: QEQLKESGGGLVQPGGSLKLSCKASGFDFNNYGMSWVRQAPGKGLEWIAYIYPAFHNTYYANWVNGRFTISSDNAQNTVDLQLNSLTAADTATYFCARDAGSTDYNFNLWGPGTLVTVSS
# VL: B1 VL with V13A, S31R, R45K, A55P, G65S, D70E, H89Q, N96Y, G105S
# notes: LEM construct: VH + rabbit IgG CH1 + human IgG1 CH2-CH3
# Biological target: T1, human Trop-2 expressed on cell surface (human, UniProt P09758 27-323)
# T1 construct: whole, on cells; also called cell surface Trop-2
# T1 sequence (looked up): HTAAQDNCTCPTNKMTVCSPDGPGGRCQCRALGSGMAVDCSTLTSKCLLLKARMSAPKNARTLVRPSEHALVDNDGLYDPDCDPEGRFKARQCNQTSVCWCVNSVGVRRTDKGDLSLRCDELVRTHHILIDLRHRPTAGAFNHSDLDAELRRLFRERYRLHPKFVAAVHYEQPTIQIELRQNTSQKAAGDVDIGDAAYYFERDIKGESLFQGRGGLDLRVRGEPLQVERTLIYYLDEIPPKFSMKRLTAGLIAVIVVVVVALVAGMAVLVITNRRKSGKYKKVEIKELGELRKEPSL
# Assay: flow cytometry, MDA-MB-231-GFP cells
# Protocol: Cells were then resuspended in FACS buffer (1×DPBS/1% FBS) at 10⁶/ml concentration. One hundred microliter (100 μl) of cells were aliquoted into a single well in 96 well plates. The antibodies to be tested were serially diluted at 1:3 fold starting at 15 μg/mL and were then added into each well. The antibodies were mixed with cells and the mixtures were incubated on ice for 1 hour. After washing with FACS buffer, one hundred microliter (100 μl) of 1:400 diluted PE-conjugated anti-human Fc secondary antibody (Jackson Immuno Research) was added into each well and incubated for 30 minutes on ice. After washing with FACS buffer, stained cells were resuspended at diluted 7-ADD (Biolegend, used at 1:100 dilution) and analyzed on Guava 11HT or 5HT (Luminex). Data was analyzed using Flowjo software. EC₅₀ values were calculated using GraphPad Prism. Sacitnzurnab govitecan was used as positive control. Anti-HEL.hIgG1 was used as isotype negative control. Similar assay was performed using MCF-7 cells (known to express human Trop-2).
row,Binder,EC50 [nM]
1,B1,0.01
2,B2,0.03
3,B3,0.01
4,B4,0.01
5,B5,0.03
6,B6,0.1
7,B7,0.02

# Biological target: T2, rat Trop-2 (rat, UniProt Q6P9Z6 25-270, limits assumed)
# T2 sequence (looked up): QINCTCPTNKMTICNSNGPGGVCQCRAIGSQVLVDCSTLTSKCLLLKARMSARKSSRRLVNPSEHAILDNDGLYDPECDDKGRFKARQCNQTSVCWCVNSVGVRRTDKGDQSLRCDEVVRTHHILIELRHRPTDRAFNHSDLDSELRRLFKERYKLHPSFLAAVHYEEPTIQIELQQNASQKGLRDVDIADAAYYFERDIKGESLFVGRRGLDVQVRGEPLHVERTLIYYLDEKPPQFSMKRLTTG
# Assay: ELISA, similar to Table 24
# Protocol: (§1) Purified antibodies were tested by ELISA to confirm their binding and affinity against human and cynomolgus Trop-2-His protein. Briefly, 96-well Maxisorp plates (Nunc) were coated with 100 μl/well of 0.5 μg/ml human (Kactus Cat #TRP-HM121, or Sino Biological, Cat #10428-HO8H) or cynomolgus Trop-2 protein (Kactus Cat #TRP-CM121, or Sino Biological, Cat #90893-CO8H) diluted in 1×PBS (GIBCO) overnight at 4° C. Plates were washed four times with 300 μl/well washing buffer (1×PBST, diluted from 20×PBST (Thermo Scientific) with distilled water)) and then blocked with 300 μl/well of blocking buffer (1×PBST/3% BSA (BSA, Sigma)) for 2 hours at RT on plate shaker at 100 rpm. Plates were washed and added with 100 μl/well of testing antibodies, which were serial diluted with assay buffer (PBST/1% BSA). The antibodies were incubated at room temperature for 2 hours on plate shaker at 100 rpm. Plates were washed. One hundred microliters (100 μl) of 1:10,000 diluted horseradish peroxidase (HRP) conjugated anti-hIgG antibody (Jackson Immuno Research) was added into each well and incubated at room temperature for 1 hour on plate shaker at 100 rpm. Plates were washed and added with 100 μl/well TMB substrate for color development in dark at room temperature for up to 10 minutes. After addition of 50 μl/well of stop solution (1N H₂SO₄), plates were read at 450 nm on a plate reader (SpectraMax M5). EC₅₀ values were calculated using Graphpad Prism. Sacituzumab govitecan, was used as positive control. Anti-HEL.hIgG1 was used as isotype control.
# Similar assays were performed to test whether the exemplary antibodies of the present disclosure bind to human Trop-1 (EpCAM) or mouse Trop-2 (Kactus, Cat #TRP-MM121) or rat Trop-2 (kactus, Cat #TRP_RM121). No binding of the exemplary antibodies of the present disclosure to human Trop-1 (EpCAM) or mouse or rat Trop-2 has been detected.
row,Binder,binding result
1,B1,no binding
2,B2,no binding
3,B3,no binding
4,B4,no binding
5,B5,no binding
6,B6,no binding
7,B7,no binding

# Biological target: T1, human Trop-2 expressed on cell surface
# Assay: cell-based or functional assay
Binder,"Internalization %, MDA-MB-231, 0.25 µg/ml, 2 h [%]","Internalization %, MDA-MB-231, 0.25 µg/ml, 4 h [%]","Internalization %, MDA-MB-231, 0.5 µg/ml, 2 h [%]","Internalization %, MDA-MB-231, 0.5 µg/ml, 4 h [%]","Internalization %, MDA-MB-231, 1 µg/ml, 2 h [%]","Internalization %, MDA-MB-231, 1 µg/ml, 4 h [%]","Internalization %, MDA-MB-231, 2 µg/ml, 2 h [%]","Internalization %, MDA-MB-231, 2 µg/ml, 4 h [%]"
B1,46,53,48,52,41,51,39,44
B2,34,38,34,46,33,41,28,31
B3,41,46,42,45,43,49,43,48
B4,38,48,42,48,35,45,37,45
B5,42,52,47,55,43,54,42,49
B6,52,63,49,58,51,62,48,59
B7,42,52,37,45,42,48,39,46

# Biological target: T3, cynomolgus Trop-2-His protein (cynomolgus, UniProt P09758 27-274 (human entry))
# T3 construct: also called cynmolgus Trop-His; Kactus Cat #TRP-CM121; not shown: His tag
# T3 chain: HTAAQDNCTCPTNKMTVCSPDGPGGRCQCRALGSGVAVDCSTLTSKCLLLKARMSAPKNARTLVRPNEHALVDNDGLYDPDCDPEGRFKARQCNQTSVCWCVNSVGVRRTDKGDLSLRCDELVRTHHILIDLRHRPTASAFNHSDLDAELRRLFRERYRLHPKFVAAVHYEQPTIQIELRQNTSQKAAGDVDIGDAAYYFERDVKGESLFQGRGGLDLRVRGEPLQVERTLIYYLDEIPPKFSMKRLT
# Assay: ELISA, coated Trop-2 protein
# Protocol: as §1
row,Binder,EC50 [nM]
1,B1,0.017
2,B2,0.03
3,B3,0.016
4,B4,0.013
5,B5,0.016
6,B6,0.014
7,B7,0.014

# Biological target: T4, human Trop-2-His protein (human, UniProt P09758 27-274)
# T4 construct: extracellular domain; Assay paragraphs say only 'Trop-2-His'; also called hTrop-2; Kactus Cat #TRP-HM121; not shown: His tag
# T4 sequence (looked up): T3 chain with V36M, N67S, S139G, V204I
# Assay: ELISA, coated Trop-2 protein
# Protocol: as §1
row,Binder,EC50 [nM]
1,B1,0.016
2,B2,0.033
3,B3,0.018
4,B4,0.013
5,B5,0.017
6,B6,0.02
7,B7,0.013

# Biological target: T1, human Trop-2 expressed on cell surface
# Assay: cell-based or functional assay
# Remark: another data set of the same source
Binder,"EC50 of ADCC (NFAT-CD16 reporter), MCF-7 [nM]","EC50 of ADCC (NFAT-CD16 reporter), MDA-MB-231 [nM]"
B1,0.28,0.04
B2,0.18,0.03
B3,0.4,0.04
B4,0.16,0.07
B5,0.28,0.09
B6,0.23,0.11
B7,0.27,0.09
